The values that follow come from PMC2115046.

Where “and” joins values, the source holds several entries; their conditions need not be identical. Equal values may be shown once. Read-outs that look alike come from different tables or passages of the source.

For assay [1], the target named is G-actin, rabbit skeletal muscle (rabbit) (UniProt P68135). The assay is described as follows: other fluorescence titration.
For assay [2] the target is unchanged. As to the kind of experiment: dissociation kinetics by etheno-ATP fluorescence decay.
Assay [3] has the same target.
For assay [4] the target is unchanged. The assay is described as follows: association kinetics by inactivation of etheno-ATP exchange.

Sequence of 14NT, 14-kD fragment of human plasma gelsolin containing the NH2 terminal (domain or fragment) (P06396 28-782): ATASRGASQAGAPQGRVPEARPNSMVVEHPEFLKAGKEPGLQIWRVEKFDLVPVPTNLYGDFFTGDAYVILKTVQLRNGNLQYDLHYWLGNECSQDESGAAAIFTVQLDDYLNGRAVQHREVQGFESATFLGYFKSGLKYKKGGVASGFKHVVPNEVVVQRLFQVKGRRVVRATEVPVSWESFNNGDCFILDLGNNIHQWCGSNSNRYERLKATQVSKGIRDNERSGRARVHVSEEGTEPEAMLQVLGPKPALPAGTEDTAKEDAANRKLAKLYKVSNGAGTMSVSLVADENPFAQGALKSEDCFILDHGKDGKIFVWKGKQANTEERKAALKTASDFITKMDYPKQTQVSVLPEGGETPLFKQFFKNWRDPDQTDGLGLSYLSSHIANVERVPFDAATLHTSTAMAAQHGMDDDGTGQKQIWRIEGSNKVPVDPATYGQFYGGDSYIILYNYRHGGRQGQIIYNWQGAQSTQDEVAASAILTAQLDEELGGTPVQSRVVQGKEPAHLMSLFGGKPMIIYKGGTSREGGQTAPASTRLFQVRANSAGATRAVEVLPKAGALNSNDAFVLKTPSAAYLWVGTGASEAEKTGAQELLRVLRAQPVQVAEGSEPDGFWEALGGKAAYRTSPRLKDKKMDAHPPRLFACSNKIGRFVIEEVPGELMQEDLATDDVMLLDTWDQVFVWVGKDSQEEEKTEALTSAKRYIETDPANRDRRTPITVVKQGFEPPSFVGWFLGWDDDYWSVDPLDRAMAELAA
Sequence of 41CT, 41-kD COOH-terminal half of human plasma gelsolin (domain or fragment) (P06396 28-782): as above

One may read the Kd as the concentration at which binding is half-saturated. One may read the stoichiometry N as the number of molecules, sites or subunits per partner or assembly. In assay [1], “41CT, 41-kD COOH-terminal half of human plasma gelsolin (domain or fragment)” had a Kd of 25 nM and a stoichiometry N of 1.
A word on the koff: it is the first-order rate constant of dissociation. A higher koff goes with a short-lived complex. As usually defined, the kon is the second-order rate constant of association. Turning to “14NT, 14-kD fragment of human plasma gelsolin containing the NH2 terminal (domain or fragment)”, in assay [2], the off-rate (koff) is 1.35e-06 s⁻¹ and the t1/2 of the complex amounted to 143 h. In assay [3], this substance came in with a Ka of 2.2e+11 M⁻¹ and a Kd of 0.004 to 0.005 nM. In assay [4], this substance displayed a kon of 299000 M⁻¹ s⁻¹. Moreover, in assay [1], the half-maximal saturation was 1 nM and 2 nM; the koff was found to be 0.0003 s⁻¹; the stoichiometry N was 1.
